From patent US20020155503

With “recombinant form of the human Syk enzyme” the “phosphorylation of library peptide, anti-phosphotyrosine ELISA (absorbance at 450 nm); preferred substrate of the sub-set” value (“phosphorylation of library peptide” below) (Asp-Glu-Glu-Tyr-Asp) was “Library Sub-Set 2 Asp-Glu-Glu-Tyr-Asp [SEQ ID No. 12]”, the “phosphorylation of library peptide” value (Asp-Glu-Tyr-Glu-Asp) was “Library Sub-Set 3Asp-Glu-Tyr-Glu-Asp [SEQ ID No. 13]” and the “phosphorylation of library peptide” value (Asp-Glu-Glu-Asp-Tyr) was “Library Sub-Set 1 Asp-Glu-Glu-Asp-Tyr [SEQ ID No. 11]”. For the same substance, the “phosphorylation of library peptide” value (Tyr-Ser-Ile-Ile-Nle) was “Library Sub-Set 5 Tyr-Ser-Ile-Ile-Nle [SEQ ID No. 15]” and the “phosphorylation of library peptide” value (Asp-Tyr-Glu-Glu-Val) was “Library Sub-Set 4 Asp-Tyr-Glu-Glu-Val [SEQ ID No. 14]”.
